Assay results as given in patent US11911450B2, “Method for managing pain” (UNIVERSITY OF MIAMI, priority 2017, dated 2024).

What was measured:
[1] = target: ITPR1 (Homo sapiens, UniProt Q14643); test: NGF-induced intracellular calcium release / ITPR1 activation in NBL cells; format: cell-based; set-up: endogenous in cells
[2] = tested on: intracellular calcium release in NBL cells; test: ATP-stimulated calcium release in NBL cells (Fura2 imaging); format: cell-based, human; conditions: 1 μM ATP, vs empty vector
Description: Pharmacodynamics—Bioassay of Calcium Release: Fifteen mm glass coverslips (cat #72228 Electron Microscopy Sciences, Hatfield, PA) were coated with poly-D-Lysine (Sigma) followed by Laminin and 1×10^5 cells were seeded on each coverslip. Twenty-four hrs later, cells were transfected with AAV2-ITR, AAV2-V5-Car10, or AAV2-V5-CA10 vectors as previously described. In embodiments wherein AAV2 is not employed, other expression vectors (including viral vectors) are used. Fura-2AM (cat #F1221 ThermoFisher scientific, Waltham, MA) was dissolved in DMSO (50 μg in 50 μl) and 1% pluronic acid-127 (cat #P2443 Sigma, St Louis, MO) as the stock solution. Forty eight hrs after seeding, cells were loaded with 2 μM Fura-2AM dye for 45 min at room temperature in the dark in a standard Ca+2 buffer solution containing: 125 mM NaCl, 2 mM MgCl, 4.5 mM KCl, 10 glucose, 20 mM HEPES, 2 mM CaCl2, pH 7.4.25. Following dye loading, coverslips were washed with Ca^+2 buffer solution. […] Regions of interest over the field of view were selected and the mean pixels intensity at each frame was measured. Data was plotted as ratio fluorescence intensity versus time and subsequently converted to a relative scale. […]

Chain of ITPR1 (Q14643 whole entry): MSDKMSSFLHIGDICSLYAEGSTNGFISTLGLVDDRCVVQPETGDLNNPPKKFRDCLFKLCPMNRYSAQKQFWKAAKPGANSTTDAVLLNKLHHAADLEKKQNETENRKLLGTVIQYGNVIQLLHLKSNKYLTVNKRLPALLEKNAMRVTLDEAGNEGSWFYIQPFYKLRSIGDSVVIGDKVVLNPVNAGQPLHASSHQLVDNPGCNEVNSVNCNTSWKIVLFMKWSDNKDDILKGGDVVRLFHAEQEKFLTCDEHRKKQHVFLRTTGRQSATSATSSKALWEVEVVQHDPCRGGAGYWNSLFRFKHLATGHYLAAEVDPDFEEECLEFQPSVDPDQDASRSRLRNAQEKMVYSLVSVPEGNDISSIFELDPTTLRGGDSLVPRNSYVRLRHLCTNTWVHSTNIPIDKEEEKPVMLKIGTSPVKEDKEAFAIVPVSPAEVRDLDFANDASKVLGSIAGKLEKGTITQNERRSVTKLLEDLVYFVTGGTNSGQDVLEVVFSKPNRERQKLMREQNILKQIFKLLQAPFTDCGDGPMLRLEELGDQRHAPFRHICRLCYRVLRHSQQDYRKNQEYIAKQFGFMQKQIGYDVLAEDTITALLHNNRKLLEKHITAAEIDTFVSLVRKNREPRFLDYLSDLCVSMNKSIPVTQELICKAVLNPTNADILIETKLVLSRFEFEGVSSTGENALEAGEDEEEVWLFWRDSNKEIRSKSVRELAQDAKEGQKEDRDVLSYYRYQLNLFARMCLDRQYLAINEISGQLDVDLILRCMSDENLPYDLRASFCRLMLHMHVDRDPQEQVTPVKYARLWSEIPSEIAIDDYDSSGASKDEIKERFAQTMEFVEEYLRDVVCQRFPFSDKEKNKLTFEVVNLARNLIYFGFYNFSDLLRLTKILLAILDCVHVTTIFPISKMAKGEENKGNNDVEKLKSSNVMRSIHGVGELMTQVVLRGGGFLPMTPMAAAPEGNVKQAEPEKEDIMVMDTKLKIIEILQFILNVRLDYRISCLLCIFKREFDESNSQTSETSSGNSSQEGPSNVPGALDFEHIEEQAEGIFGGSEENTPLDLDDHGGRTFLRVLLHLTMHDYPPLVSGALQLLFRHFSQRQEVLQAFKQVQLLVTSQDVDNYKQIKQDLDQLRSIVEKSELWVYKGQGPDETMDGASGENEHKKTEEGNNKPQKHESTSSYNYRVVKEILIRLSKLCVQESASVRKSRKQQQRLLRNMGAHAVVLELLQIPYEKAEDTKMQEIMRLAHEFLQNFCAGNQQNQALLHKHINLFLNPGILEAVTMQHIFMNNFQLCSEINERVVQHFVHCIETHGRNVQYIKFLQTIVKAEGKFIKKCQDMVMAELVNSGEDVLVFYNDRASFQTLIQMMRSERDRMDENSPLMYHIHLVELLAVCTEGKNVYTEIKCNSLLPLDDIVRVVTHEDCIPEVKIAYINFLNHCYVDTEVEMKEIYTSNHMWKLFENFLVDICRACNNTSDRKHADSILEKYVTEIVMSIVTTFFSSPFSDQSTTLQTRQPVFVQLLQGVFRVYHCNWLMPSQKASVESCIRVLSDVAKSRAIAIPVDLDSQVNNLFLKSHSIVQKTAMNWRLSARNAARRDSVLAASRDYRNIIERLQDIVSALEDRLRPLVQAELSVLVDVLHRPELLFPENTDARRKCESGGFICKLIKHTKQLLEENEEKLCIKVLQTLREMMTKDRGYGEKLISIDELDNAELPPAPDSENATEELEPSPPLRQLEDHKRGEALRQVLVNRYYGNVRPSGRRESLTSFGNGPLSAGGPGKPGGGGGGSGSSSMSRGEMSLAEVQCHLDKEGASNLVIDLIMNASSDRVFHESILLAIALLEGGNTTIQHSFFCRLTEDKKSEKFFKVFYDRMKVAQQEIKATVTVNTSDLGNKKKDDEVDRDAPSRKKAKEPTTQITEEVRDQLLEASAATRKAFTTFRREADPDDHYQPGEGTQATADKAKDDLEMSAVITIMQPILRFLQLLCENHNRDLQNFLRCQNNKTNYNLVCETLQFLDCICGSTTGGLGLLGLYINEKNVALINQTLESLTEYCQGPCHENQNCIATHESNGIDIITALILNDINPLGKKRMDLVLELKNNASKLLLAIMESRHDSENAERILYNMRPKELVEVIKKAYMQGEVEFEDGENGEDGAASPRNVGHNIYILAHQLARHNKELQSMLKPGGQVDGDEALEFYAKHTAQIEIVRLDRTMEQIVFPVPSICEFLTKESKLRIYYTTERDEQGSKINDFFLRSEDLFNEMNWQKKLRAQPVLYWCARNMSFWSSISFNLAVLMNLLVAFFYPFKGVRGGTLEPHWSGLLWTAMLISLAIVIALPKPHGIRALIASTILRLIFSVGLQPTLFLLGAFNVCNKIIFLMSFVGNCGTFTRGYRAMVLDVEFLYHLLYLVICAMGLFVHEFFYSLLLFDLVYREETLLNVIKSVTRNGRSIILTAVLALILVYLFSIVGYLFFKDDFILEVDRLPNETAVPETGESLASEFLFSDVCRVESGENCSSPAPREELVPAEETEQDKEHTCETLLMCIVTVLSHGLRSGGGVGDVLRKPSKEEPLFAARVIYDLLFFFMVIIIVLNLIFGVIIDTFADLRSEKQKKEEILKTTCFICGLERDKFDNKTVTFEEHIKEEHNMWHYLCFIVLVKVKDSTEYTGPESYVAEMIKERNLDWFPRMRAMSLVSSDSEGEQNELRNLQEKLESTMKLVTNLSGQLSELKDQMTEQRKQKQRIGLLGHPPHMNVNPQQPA

NGF-induced intracellular calcium release ([1]; NBL cells): nearly completely
B1: CA8-201: wildtype full length CA8 transcript/peptide (protein, UniProt P35219 1-290, looked up)
chain: MADLSFIEDTVAFPEKEEDEEEEEEGVEWGYEEGVEWGLVFPDANGEYQSPINLNSREARYDPSLLDVRLSPNYVVCRDCEVTNDGHTIQVILKSKSVLSGGPLPQGHEFELYEVRFHWGRENQRGSEHTVNFKAFPMELHLIHWNSTLFGSIDEAVGKPHGIAIIALFVQIGKEHVGLKAVTEILQDIQYKGKSKTIPCFNPNTLLPDPLLRDYWVYEGSLTIPPCSEGVTWILFRYPLTISQLQIEEFRRLRTHVKGAELVEGCDGILGDNFRPTQPLSDRVIRAAFQ
modifications: full-length V5 tag
notes: wildtype full length CA8 transcript/peptide
NGF-induced ITPR1 activation (pITPR1) [1]: inhibits NGF-induced ITPR1 activation (pITPR1)
ATP-stimulated calcium release [2]: able to inhibit Ca^2+ release
